According to patent US8071348B2, “Protein tyrosine phosphatase substrate-trapping double mutant and uses thereof” (Albert Einstein College of Medicine of Yeshiva University, priority 2002, dated 2011):
Like-named read-outs stand apart in the source and are kept apart here.

T1: EGFR 988-998 peptide DADEpYLIPQQG
T1 chain: DADEXLIPQQG

T2: EGFR^988-998 peptide, DADEpYLIPQQG (Homo sapiens, UniProt P18031, Q262A)
T2 construct: The catalytic domain of PTP1B (residues 1 to 321) was used for in vitro study; made in house; host or cells: E. coli (pT7-7 plasmids)
T2 sequence (P18031 1-321 Q262A): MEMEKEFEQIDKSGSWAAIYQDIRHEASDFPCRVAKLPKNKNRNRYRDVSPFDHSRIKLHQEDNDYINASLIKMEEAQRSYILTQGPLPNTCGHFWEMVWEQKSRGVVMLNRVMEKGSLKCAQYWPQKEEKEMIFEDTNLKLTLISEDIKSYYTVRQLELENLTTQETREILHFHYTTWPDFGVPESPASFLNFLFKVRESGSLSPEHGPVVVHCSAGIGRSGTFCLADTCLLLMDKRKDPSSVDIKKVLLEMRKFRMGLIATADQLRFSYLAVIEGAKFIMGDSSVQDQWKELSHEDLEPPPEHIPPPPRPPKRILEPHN


Key:
[1] = molecular target: T1, EGFR 988-998 peptide DADEpYLIPQQG
[2] = Kinetic constants for PTP1B-catalyzed hydrolysis of pNPP; assay type: biochemical; conditions: pNPP as substrate; 25° C. and pH 7.0
Source text: (§1) The catalytic domain of PTP1B (residues 1 to 321) was used for in vitro study. PTP1B mutants, C215S, D181A, and Q262A, were described previously (9, 25, 26). PTP1B double mutants, D181A/C215S and C215S/Q262A, were generated by PCR reactions, according to the standard procedure of the Quick-Change™ site-directed mutagenesis kit (Stratagene), using pT7-7/PTP1B/C215S as a template. PTP1B double mutants, D181A/C215E and D181A/Q262A, were generated by similar PCR procedures, using pT7-7/PTP1B/D181A as a template. The recombinant wild-type and mutant PTP1Bs were expressed in E. coli, and purified to homogeneity as described (25, 27). Protein concentration was determined from absorbance measurement at 280 nm, using an absorbance coefficient of 1.24 for 1 mg/ml PTP1B.
PTP activity was assayed at 25° C. and pH 7.0, in a reaction mixture (0.2 ml) containing pNPP concentrations ranging from 0.2 to 5 Km. The following buffered solution was used for activity measurements: pH 7.0, 50 mM 3,3-dimethylglutarate, 1 mM EDTA; the ionic strength was 0.15 M, as adjusted by addition of NaCl. Initial rate measurements for the enzyme-catalyzed hydrolysis of pNPP were conducted as previously described (26). Michaelis-Menten kinetic parameters were determined from a direct fit of the data to the Michaelis-Menten equation, using the nonlinear regression program, KINETASYST (Intellikinetics, State College, Pa.).

[3] = test system: EGFR^988-998 peptide, DADEpYLIPQQG; test: Kinetic constants for PTP1B-catalyzed hydrolysis of pTyr-containing EGFR988-998 peptide; assay type: biochemical; conditions: EGFR988-998 peptide as substrate; 25° C. and pH 7.0
Source text: as §1
All assays were performed at 25° C. in buffer (pH 7.0, ionic strength=0.15 M) containing 50 mM 3,3-dimethylglutarate and 1 mM EDTA. A continuous spectrophotometric assay, previously described (28), was employed to determine kcat and Km for the pTyr-containing peptides. The dephosphorylation reaction was monitored by either an increase in absorbance at 282 nm, or an increase in fluorescence at 305 nm. Fluorometric and absorbance determinations were performed on a Perkin-Elmer LS50B fluorometer and a Perkin-Elmer Lambda 14 spectrophotometer, respectively. The instruments were equipped with a water-jacketed cell holder, permitting maintenance of the reaction mixture at the desired temperature (25° C.).

[4] = test system: EGF receptor; test: Substrate protection: EGF receptor tyrosine phosphorylation in COS1 cells expressing PTP1B forms (anti-pTyr Western blot); assay type: cell-based, Monkey; conditions: COS1 cell lysates, anti-pTyr immunoblot (FIG. 4)
Method: FIG. 4 sets forth Western blots (WB) that show the level of tyrosine phosphorylation in the epidermal growth factor receptor (EGFR) upon expression of the wild-type and mutant PTP1Bs (4 μg plasmid/60 mm dish) in COS1 cells. Samples (50 μg total protein) were taken from the lysates of COS1 cells transfected with 4 μg of pJ3H plasmids expressing HA-tagged wild-type PTP1B, D181A, C215S, D181A/Q262A, or D181A/C215S. These samples were loaded into each lane for SDS-PAGE electrophoresis, and transferred onto a nitrocellulose membrane. The proteins on the membrane were first immunoblotted with anti-pTyr HRP conjugate (upper panel). The membrane was then stripped and re-probed with anti-hemagglutinin (anti-HA) HRP conjugate (lower panel).
The hemagglutinin-tagged (HA-tagged) full-length human wild-type PTP1B in pJ3H expression vector was a gift from Dr. Chemoff (30). The HA-tagged PTP1B mutants, C215S, D181A, D181A/C215S, and D181A/Q262A, were generated by PCR reactions, according to the standard procedure of the Quick-Change™ site-directed mutagenesis kit (Stratagene), using pJ3H-HA-PTP1B as a template. All mutations were verified by DNA sequencing.
Monkey kidney COS1 cells (ATCC: CRL-1650) were maintained in Dulbecco's modified Eagle's minimum essential medium (DMEM), supplemented with 10% fetal bovine serum (Life Technologies, Inc.), penicillin (50 units/ml), streptomycin (50 μg/ml), and L-glutamine (2 mM) under a humidified atmosphere containing 5% CO2. In transient transfection experiments, COS1 cells were inoculated at a density of 2×10^5 cells/60-mm dish, and grown overnight in DMEM containing 10% fetal bovine serum. Transfection was performed using LipoTAXI^R according to the manufacturer's recommendations (Stratagene, Cedar Creek, Tex.). Each transfection assay included 4 μg of purified DNA mixed with LipoTAXI^R in a 1:5 DNA:lipid ratio per 60-mm dish of cells. Following transfection, the cells were exchanged to normal culture medium, and maintained for 44 to 48 h at 37° C. and 5% CO2. The efficiency of transfection, as assessed by 5-bromo-4-chloro-3-indolyl-β-D galactoside (X-Gal) staining of pCMV-β-gal-transfected (β-Gal staining kit, Invitrogen) COS cells, was 25%.
The transfected cells (treated with or without EGF) were lysed with “lysis buffer” containing 50 mM Tris-HC1 (pH 7.5), 5 mM EDTA, 150 mM NaCl, 10 mM sodium phosphate, 10 mM sodium fluoride, 5 mM iodoacetic acid, 1 mM benzamidine, 1% Triton X-100, 10 μg/ml leupeptin, and 5 μg/ml Aprotinin. Lysate protein concentration was estimated using Bio-Rad protein assay reagent (Bio-Rad, Hercules, Calif.).
For immunoprecipitation, 1 mg of cell lysate was immunoprecipitated overnight with 30 μl of agarose-conjugated anti-hemagglutinin antibody at 4° C. Immunocomplexes were washed four times with the cell lysis buffer, and boiled for 5 min in SDS-PAGE sample buffer. Proteins in the cell lysate were separated by 8% SDS-PAGE under reducing conditions, according to the method of Laemmli (31), followed by blotting onto nitrocellulose membranes (Protran, Schleicher & Schuell). The nitrocellulose membranes were blocked with 5% non-fat dry milk in Tris-buffered saline/Tween (TBST) buffer (20 mM Tris-HC1, 150 mM NaCl, 0.1% Tween-20; pH 7.6) for 1 h at 25° C.
Thereafter, blots were incubated overnight with primary antibodies diluted in TBST containing 5% non-fat dry milk at 4° C. […]

[5] = molecular target: Ac-Asp-Ala-Asp-Glu-F2Pmp-Leu-NH2; conditions: ITC, 25° C. and pH 7.0; data from (24); cited from earlier work
[6] = pNPP as substrate, cited from earlier work
[7] = molecular target: T2, EGFR^988-998 peptide, DADEpYLIPQQG; conditions: cited from earlier work
[8] = EGFR988-998 peptide as substrate, 30° C. and pH 7.0 (26)
[9] = hydrolysis of EGFR988-998 peptide and phosphorylated lysozyme, previous kinetic studies (18, 26)

| Molecule | Km (hydrolysis of the EGFR 988-998 peptide, 25 C, pH 7.0) [1] | Km [2] | kcat [2] | Km [3] | kcat [3] | level of pTyr in the EGF receptor / enhancement of EGF receptor phosphorylation [4] | Kd [5] | Km ([6]; 30° C. and pH 7.0 (26)) | kcat ([6]; 30° C. and pH 7.0 (26)) | fold reduction of kcat ([6]; (26)) | fold decrease in Km ([6]; shown previously (26)) | Km [7, 8] | kcat [7, 8] | fold reduction of kcat ([7]; EGFR988-998 peptide as substrate, (26)) | fold decrease in Km ([7]; EGFR988-998 peptide as substrate, shown previously (26)) | fold reduction of kcat [7, 9] | fold reduction of kcat/Km [7, 9] |
| --- | --- | --- | --- | --- | --- | --- | --- | --- | --- | --- | --- | --- | --- | --- | --- | --- | --- |
| wild-type PTP1B, catalytic domain (residues 1 to 321) (protein) MEMEKEFEQIDKSGSWAAIYQDIRHEASDFPCRVAKLPKNKNRNRYRDVSPFDHSRIKLHQEDNDYINASLIKMEEAQRSYILTQGPLPNTCGHFWEMVWEQKSRGVVMLNRVMEKGSLKCAQYWPQKEEKEMIFEDTNLKLTLISEDIKSYYTVRQLELENLTTQETREILHFHYTTWPDFGVPESPASFLNFLFKVRESGSLSPEHGPVVVHCSAGIGRSGTFCLADTCLLLMDKRKDPSSVDIKKVLLEMRKFRMGLIQTADQLRFSYLAVIEGAKFIMGDSSVQDQWKELSHEDLEPPPEHIPPPPRPPKRILEPHN | 2.6 µM | 2400 ± 200 µM | 9.8 ± 0.5 s⁻¹ | 2.6 ± 0.3 µM | 30 ± 1 s^− | comparable to that in the vector control | 240 ± 50 nM |  |  |  |  |  |  |  |  |  |  |
| Q262A: PTP1B mutant, Gln262 replaced by Ala, described previously (protein, UniProt P18031 1-435, looked up, variant Q262A) Tyrosine-protein phosphatase …: MEMEKEFEQIDKSGSWAAIYQDIRHEASDFPCRVAKLPKNKNRNRYRDVSPFDHSRIKLHQEDNDYINASLIKMEEAQRSYILTQGPLPNTCGHFWEMVWEQKSRGVVMLNRVMEKGSLKCAQYWPQKEEKEMIFEDTNLKLTLISEDIKSYYTVRQLELENLTTQETREILHFHYTTWPDFGVPESPASFLNFLFKVRESGSLSPEHGPVVVHCSAGIGRSGTFCLADTCLLLMDKRKDPSSVDIKKVLLEMRKFRMGLIATADQLRFSYLAVIEGAKFIMGDSSVQDQWKELSHEDLEPPPEHIPPPPRPPKRILEPHNGKCREFFPNHQWVKEETQEDKDCPIKEEKGSPLNAAPYGIESMSQDTEVRSRVVGGSLRGAQAASPAKGEPSLPEKDEDHALSYWKPFLVNMCVATVLTAGAYLCYRFLFNSNT |  |  |  |  |  |  |  | 58 ± 6 µM | 0.21 ± 0.01 s⁻¹ | 80 fold | 38 fold | 0.35 ± 0.05 µM | 0.29 ± 0.002 s^− | 150 fold | 7.4 fold | 100 fold | 10 fold |
